{"source": "patent US20130005646A1", "about": "(Novo Nordisk, published 2013)", "binders": {"B1": {"name": "N-alpha-[(S)-4-Carboxy-4-(19-carboxynonadecanoylamino)butyryl]-[Glu14,His17,Arg35]-pramlintide (peptide)", "peptide": "{C20 diacid-γGlu}-KCNTATCATQRLAEFLHHSSNNFGPILPPTNVGSRTY-NH2", "modifications": "disulfide 2-7", "SMILES": "CC[C@H](C)[C@H](NC(=O)[C@@H]1CCCN1C(=O)CNC(=O)[C@H](Cc1ccccc1)NC(=O)[C@H](CC(N)=O)NC(=O)[C@H](CC(N)=O)NC(=O)[C@H](CO)NC(=O)[C@H](CO)NC(=O)[C@H](Cc1c[nH]cn1)NC(=O)[C@H](Cc1c[nH]cn1)NC(=O)[C@H](CC(C)C)NC(=O)[C@H](Cc1ccccc1)NC(=O)[C@H](CCC(=O)O)NC(=O)[C@H](C)NC(=O)[C@H](CC(C)C)NC(=O)[C@H](CCCNC(=N)N)NC(=O)[C@H](CCC(N)=O)NC(=O)[C@@H](NC(=O)[C@H](C)NC(=O)[C@@H]1CSSC[C@H](NC(=O)[C@H](CCCCN)NC(=O)CC[C@H](NC(=O)CCCCCCCCCCCCCCCCCCC(=O)O)C(=O)O)C(=O)N[C@@H](CC(N)=O)C(=O)N[C@@H]([C@@H](C)O)C(=O)N[C@@H](C)C(=O)N[C@@H]([C@@H](C)O)C(=O)N1)[C@@H](C)O)C(=O)N[C@@H](CC(C)C)C(=O)N1CCC[C@H]1C(=O)N1CCC[C@H]1C(=O)N[C@H](C(=O)N[C@@H](CC(N)=O)C(=O)N[C@H](C(=O)NCC(=O)N[C@@H](CO)C(=O)N[C@@H](CCCNC(=N)N)C(=O)N[C@H](C(=O)N[C@@H](Cc1ccc(O)cc1)C(N)=O)[C@@H](C)O)C(C)C)[C@@H](C)O"}, "B2": {"name": "N-alpha-[(S)-4-Carboxy-4-(19-carboxynonadecanoylamino)butyryl]-[Glu14,His17,His36]-pramlintide (peptide)", "peptide": "{C20 diacid-γGlu}-KCNTATCATQRLAEFLHHSSNNFGPILPPTNVGSNHY-NH2", "modifications": "disulfide 2-7; not fully specified; printed as N-alpha-[(S)-4-Carboxy-4-(19-carboxynonadecanoylamino)butyryl]-[Glu14,His17,His36]-pramlintide"}, "B3": {"name": "N-alpha-[(S)-4-Carboxy-4-(19-carboxynonadecanoylamino)butyryl]-[Glu14,His17,Lys35]-pramlintide (peptide)", "peptide": "{C20 diacid-γGlu}-KCNTATCATQRLAEFLHHSSNNFGPILPPTNVGSKTY-NH2", "modifications": "disulfide 2-7; not fully specified; printed as N-alpha-[(S)-4-Carboxy-4-(19-carboxynonadecanoylamino)butyryl]-[Glu14,His17,Lys35]-pramlintide"}, "B4": {"name": "N-alpha-[(S)-4-Carboxy-4-(19-carboxynonadecanoylamino)butyryl]-[His1,Glu14,Pro37]-pramlintide (peptide)", "peptide": "{C20 diacid-γGlu}-HCNTATCATQRLAEFLVHSSNNFGPILPPTNVGSNTP-NH2", "modifications": "disulfide 2-7", "SMILES": "CC[C@H](C)[C@H](NC(=O)[C@@H]1CCCN1C(=O)CNC(=O)[C@H](Cc1ccccc1)NC(=O)[C@H](CC(N)=O)NC(=O)[C@H](CC(N)=O)NC(=O)[C@H](CO)NC(=O)[C@H](CO)NC(=O)[C@H](Cc1c[nH]cn1)NC(=O)[C@@H](NC(=O)[C@H](CC(C)C)NC(=O)[C@H](Cc1ccccc1)NC(=O)[C@H](CCC(=O)O)NC(=O)[C@H](C)NC(=O)[C@H](CC(C)C)NC(=O)[C@H](CCCNC(=N)N)NC(=O)[C@H](CCC(N)=O)NC(=O)[C@@H](NC(=O)[C@H](C)NC(=O)[C@@H]1CSSC[C@H](NC(=O)[C@H](Cc2c[nH]cn2)NC(=O)CC[C@H](NC(=O)CCCCCCCCCCCCCCCCCCC(=O)O)C(=O)O)C(=O)N[C@@H](CC(N)=O)C(=O)N[C@@H]([C@@H](C)O)C(=O)N[C@@H](C)C(=O)N[C@@H]([C@@H](C)O)C(=O)N1)[C@@H](C)O)C(C)C)C(=O)N[C@@H](CC(C)C)C(=O)N1CCC[C@H]1C(=O)N1CCC[C@H]1C(=O)N[C@H](C(=O)N[C@@H](CC(N)=O)C(=O)N[C@H](C(=O)NCC(=O)N[C@@H](CO)C(=O)N[C@@H](CC(N)=O)C(=O)N[C@H](C(=O)N1CCC[C@H]1C(N)=O)[C@@H](C)O)C(C)C)[C@@H](C)O"}, "B5": {"name": "N-alpha-[(S)-4-Carboxy-4-(19-carboxynonadecanoylamino)butyryl]-[His1,Glu14,Arg17,Ser21,Ser28,Ser29,His35]-pramlintide (peptide)", "peptide": "X1-HCNTATCATQRLAEFLRHSSSNFGPILSSTNVGSHTY-NH2", "modifications": "disulfide 2-7", "SMILES": "CC[C@H](C)[C@H](NC(=O)[C@@H]1CCCN1C(=O)CNC(=O)[C@H](Cc1ccccc1)NC(=O)[C@H](CC(N)=O)NC(=O)[C@H](CO)NC(=O)[C@H](CO)NC(=O)[C@H](CO)NC(=O)[C@H](Cc1c[nH]cn1)NC(=O)[C@H](CCCNC(=N)N)NC(=O)[C@H](CC(C)C)NC(=O)[C@H](Cc1ccccc1)NC(=O)[C@H](CCC(=O)O)NC(=O)[C@H](C)NC(=O)[C@H](CC(C)C)NC(=O)[C@H](CCCNC(=N)N)NC(=O)[C@H](CCC(N)=O)NC(=O)[C@@H](NC(=O)[C@H](C)NC(=O)[C@@H]1CSSC[C@H](NC(=O)[C@H](Cc2c[nH]cn2)NC(=O)CC[C@H](NC(=O)CCCCCCCCCCCCCCCCCCC(=O)O)C(=O)O)C(=O)N[C@@H](CC(N)=O)C(=O)N[C@@H]([C@@H](C)O)C(=O)N[C@@H](C)C(=O)N[C@@H]([C@@H](C)O)C(=O)N1)[C@@H](C)O)C(=O)N[C@@H](CC(C)C)C(=O)N[C@@H](CO)C(=O)N[C@@H](CO)C(=O)N[C@H](C(=O)N[C@@H](CC(N)=O)C(=O)N[C@H](C(=O)NCC(=O)N[C@@H](CO)C(=O)N[C@@H](Cc1c[nH]cn1)C(=O)N[C@H](C(=O)N[C@@H](Cc1ccc(O)cc1)C(N)=O)[C@@H](C)O)C(C)C)[C@@H](C)O"}, "B6": {"name": "N-alpha-[(S)-4-Carboxy-4-(19-carboxynonadecanoylamino)butyryl]-[des1,Glu14,Pro37]-pramlintide (peptide)", "peptide": "{C20 diacid-γGlu}-CNTATCATQRLAEFLVHSSNNFGPILPPTNVGSNTP-NH2", "modifications": "disulfide 1-6", "SMILES": "CC[C@H](C)[C@H](NC(=O)[C@@H]1CCCN1C(=O)CNC(=O)[C@H](Cc1ccccc1)NC(=O)[C@H](CC(N)=O)NC(=O)[C@H](CC(N)=O)NC(=O)[C@H](CO)NC(=O)[C@H](CO)NC(=O)[C@H](Cc1c[nH]cn1)NC(=O)[C@@H](NC(=O)[C@H](CC(C)C)NC(=O)[C@H](Cc1ccccc1)NC(=O)[C@H](CCC(=O)O)NC(=O)[C@H](C)NC(=O)[C@H](CC(C)C)NC(=O)[C@H](CCCNC(=N)N)NC(=O)[C@H](CCC(N)=O)NC(=O)[C@@H](NC(=O)[C@H](C)NC(=O)[C@@H]1CSSC[C@H](NC(=O)CC[C@H](NC(=O)CCCCCCCCCCCCCCCCCCC(=O)O)C(=O)O)C(=O)N[C@@H](CC(N)=O)C(=O)N[C@@H]([C@@H](C)O)C(=O)N[C@@H](C)C(=O)N[C@@H]([C@@H](C)O)C(=O)N1)[C@@H](C)O)C(C)C)C(=O)N[C@@H](CC(C)C)C(=O)N1CCC[C@H]1C(=O)N1CCC[C@H]1C(=O)N[C@H](C(=O)N[C@@H](CC(N)=O)C(=O)N[C@H](C(=O)NCC(=O)N[C@@H](CO)C(=O)N[C@@H](CC(N)=O)C(=O)N[C@H](C(=O)N1CCC[C@H]1C(N)=O)[C@@H](C)O)C(C)C)[C@@H](C)O"}, "B7": {"name": "N-alpha-[(S)-4-Carboxy-4-(19-carboxynonadecanoylamino)butyryl]-[His1,Glu14,Ser21,Ser28,Ser29,His35]-pramlintide (peptide)", "peptide": "{C20 diacid-γGlu}-HCNTATCATQRLAEFLVHSSSNFGPILSSTNVGSHTY-NH2", "modifications": "disulfide 2-7", "SMILES": "CC[C@H](C)[C@H](NC(=O)[C@@H]1CCCN1C(=O)CNC(=O)[C@H](Cc1ccccc1)NC(=O)[C@H](CC(N)=O)NC(=O)[C@H](CO)NC(=O)[C@H](CO)NC(=O)[C@H](CO)NC(=O)[C@H](Cc1c[nH]cn1)NC(=O)[C@@H](NC(=O)[C@H](CC(C)C)NC(=O)[C@H](Cc1ccccc1)NC(=O)[C@H](CCC(=O)O)NC(=O)[C@H](C)NC(=O)[C@H](CC(C)C)NC(=O)[C@H](CCCNC(=N)N)NC(=O)[C@H](CCC(N)=O)NC(=O)[C@@H](NC(=O)[C@H](C)NC(=O)[C@@H]1CSSC[C@H](NC(=O)[C@H](Cc2c[nH]cn2)NC(=O)CC[C@H](NC(=O)CCCCCCCCCCCCCCCCCCC(=O)O)C(=O)O)C(=O)N[C@@H](CC(N)=O)C(=O)N[C@@H]([C@@H](C)O)C(=O)N[C@@H](C)C(=O)N[C@@H]([C@@H](C)O)C(=O)N1)[C@@H](C)O)C(C)C)C(=O)N[C@@H](CC(C)C)C(=O)N[C@@H](CO)C(=O)N[C@@H](CO)C(=O)N[C@H](C(=O)N[C@@H](CC(N)=O)C(=O)N[C@H](C(=O)NCC(=O)N[C@@H](CO)C(=O)N[C@@H](Cc1c[nH]cn1)C(=O)N[C@H](C(=O)N[C@@H](Cc1ccc(O)cc1)C(N)=O)[C@@H](C)O)C(C)C)[C@@H](C)O"}}, "note": "Starred links: 1 amine or outer side, 2 acyl side, 3 side chain; linkers in the order of their positions; H or OH if unused. Positions of bridges follow the written chain, without caps; N, C: chain ends. *: point of attachment. X1 = (S)‑4‑Carboxy‑4‑(19-carboxynonadecanoylamino)butyryl, O=C(O)CCCCCCCCCCCCCCCCCCC(=O)N[C@@H](CCC(=O)*)C(=O)O; C20 diacid = O=C(O)CCCCCCCCCCCCCCCCCCC(=O)*; γGlu = O=C(O)[C@H](CCC(=O)[*:2])N[*:1]", "data": [{"biological_target": "T1, human amylin 3(a) receptor (human calcitonin receptor + RAMP-3) (human, UniProt P30988 25-474; O60896 24-148)", "T1 sequence (looked up) 1": "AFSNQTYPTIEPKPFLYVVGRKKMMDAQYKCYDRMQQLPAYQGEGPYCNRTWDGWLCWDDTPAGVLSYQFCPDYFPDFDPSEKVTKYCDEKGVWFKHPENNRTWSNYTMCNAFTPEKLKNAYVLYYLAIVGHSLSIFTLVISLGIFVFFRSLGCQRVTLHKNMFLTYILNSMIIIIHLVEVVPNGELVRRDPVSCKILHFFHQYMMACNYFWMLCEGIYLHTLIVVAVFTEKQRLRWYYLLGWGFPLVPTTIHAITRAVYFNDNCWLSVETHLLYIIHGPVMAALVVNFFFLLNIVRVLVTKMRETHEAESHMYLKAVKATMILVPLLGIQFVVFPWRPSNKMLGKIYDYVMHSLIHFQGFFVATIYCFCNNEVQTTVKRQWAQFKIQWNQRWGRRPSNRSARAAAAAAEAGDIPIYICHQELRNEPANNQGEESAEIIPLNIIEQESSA", "T1 sequence (looked up) 2": "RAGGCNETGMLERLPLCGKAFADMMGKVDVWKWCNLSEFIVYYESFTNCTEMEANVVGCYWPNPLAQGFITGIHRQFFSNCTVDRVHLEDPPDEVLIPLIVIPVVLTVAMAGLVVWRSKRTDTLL", "assay": "cell-based or functional assay", "units": {"Amylin receptor human EC50": "nM"}, "values": [{"binder": "B1", "Amylin receptor human EC50": 0.098}, {"binder": "B2", "Amylin receptor human EC50": 0.382}, {"binder": "B3", "Amylin receptor human EC50": 0.134}, {"binder": "B4", "Amylin receptor human EC50": 0.0845}, {"binder": "B5", "Amylin receptor human EC50": 0.394}, {"binder": "B6", "Amylin receptor human EC50": 0.088}, {"binder": "B7", "Amylin receptor human EC50": 0.921}]}, {"biological_target": "T2, human calcitonin (a) receptor (human, UniProt P30988 25-474)", "T2 sequence (looked up)": "T1 sequence (looked up) 1", "assay": "cell-based or functional assay", "units": {"CTa receptor human EC50": "nM"}, "values": [{"binder": "B1", "CTa receptor human EC50": 0.104}, {"binder": "B2", "CTa receptor human EC50": 0.113}, {"binder": "B3", "CTa receptor human EC50": 0.13}, {"binder": "B4", "CTa receptor human EC50": 0.0725}, {"binder": "B5", "CTa receptor human EC50": 0.57}, {"binder": "B6", "CTa receptor human EC50": 0.0735}, {"binder": "B7", "CTa receptor human EC50": 0.349}]}]}
